These results are taken from doi:10.1101/2021.06.01.446672 (bioRxiv, 2021).

B2: PYP-binding protein (PBP) from Rhodobacter capsulatus (natural protein, UniProt D5AR21 1-142, looked up)
chain: MDIVGQLMTDNGRYTFRSDTLNLRVTGDFPEWVMAAAAEMVGIVARREVDSKIDELQALVEFGEASEIEIDSVKYDAKERFEIIPQCVVTMGRTDYRWVAPEGRAKHCATFDGNPVTRVHDMSMTRNDSFLDNENGVDTSGH

Data set [1] deals with B2. The data set can be described thus: transient absorption.
The target in data set [2] is B2. Kind of data set: transient grating.
The data set “SEC” deals with the molecule itself. Kind of data set: SEC. A general note: In gel filtration, larger molecules generally elute earlier.

B1: Photoactive yellow protein from Rhodobacter capsulatus (Rc-PYP) (natural protein, UniProt O69138 1-124, looked up)
chain: MEIIPFGTNDIDNILAREPARAESLPFGAVLLDRMGRIAKYNKAEGLIAGRDPSTVIGRDFFNEIAPCAKGKRFHGEFLKFNRTGQANVMLDYKFNYKGAEVAVKIHLKSQPDGQFCWLFVKRA
modifications: chromophore (protonated in pUV, deprotonated in pBL; isomerised on photoexcitation)
For B1, the on-rate constant (kon) (usually the second-order rate constant of association) amounted to 1.2e+06 M⁻¹ s⁻¹ in data set [1] and 1.1e+06 M⁻¹ s⁻¹ in data set [2]. As for B2, in the data set “SEC”, the stoichiometry N (as a rule, the number of molecules, sites or subunits per partner or assembly) is 2.
